Common to all, as to assay: Kinase panel residual activity
Format in all cases: biochemical
Conditions in all cases: compound at 1 micromolar

The target of data set [1] is HIPK3 (Homo sapiens, UniProt Q9H422).
For data set [2], the target named is WNK1 (Homo sapiens, UniProt Q9H4A3).
In data set [3] the target is PKBa (Homo sapiens, UniProt P31749).
The target in data set [4] is T1, EPH-B3 (Homo sapiens, UniProt P54753).
T1 sequence (P54753 34-998): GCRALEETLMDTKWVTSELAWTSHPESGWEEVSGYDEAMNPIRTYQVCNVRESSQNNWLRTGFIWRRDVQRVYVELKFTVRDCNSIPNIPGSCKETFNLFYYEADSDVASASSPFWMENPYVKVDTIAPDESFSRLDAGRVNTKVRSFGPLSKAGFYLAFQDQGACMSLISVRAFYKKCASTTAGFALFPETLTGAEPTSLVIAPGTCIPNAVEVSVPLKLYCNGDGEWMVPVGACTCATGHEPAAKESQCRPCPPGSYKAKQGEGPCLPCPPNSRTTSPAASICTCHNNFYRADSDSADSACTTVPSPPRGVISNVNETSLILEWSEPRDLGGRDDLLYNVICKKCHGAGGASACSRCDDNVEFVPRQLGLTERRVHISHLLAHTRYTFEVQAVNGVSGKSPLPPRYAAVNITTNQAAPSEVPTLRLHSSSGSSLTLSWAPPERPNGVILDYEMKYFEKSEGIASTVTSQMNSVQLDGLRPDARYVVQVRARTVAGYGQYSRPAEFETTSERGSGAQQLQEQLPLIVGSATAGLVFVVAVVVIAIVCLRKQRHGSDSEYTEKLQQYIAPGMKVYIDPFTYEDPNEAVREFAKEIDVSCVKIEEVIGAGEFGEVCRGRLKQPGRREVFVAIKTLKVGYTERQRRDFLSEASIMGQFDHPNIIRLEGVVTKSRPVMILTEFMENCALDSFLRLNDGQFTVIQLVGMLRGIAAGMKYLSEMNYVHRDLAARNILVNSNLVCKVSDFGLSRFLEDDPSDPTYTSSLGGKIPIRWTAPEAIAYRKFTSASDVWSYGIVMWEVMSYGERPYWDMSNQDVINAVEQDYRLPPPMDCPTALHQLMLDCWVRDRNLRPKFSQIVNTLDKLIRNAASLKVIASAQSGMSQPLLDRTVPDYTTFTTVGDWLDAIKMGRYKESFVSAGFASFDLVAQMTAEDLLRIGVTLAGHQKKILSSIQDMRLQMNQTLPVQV

Data set [5] concerns the target IRAK1 (Homo sapiens, UniProt P51617).
Data set [6] has as its target GSK3b (Homo sapiens, UniProt P49841).
Data set [7] deals with MLK1 (Homo sapiens, UniProt P80192).
The target of data set [8] is STK33 (Homo sapiens, UniProt Q9BYT3).
Chain of STK33 (Q9BYT3 whole entry, species assumed): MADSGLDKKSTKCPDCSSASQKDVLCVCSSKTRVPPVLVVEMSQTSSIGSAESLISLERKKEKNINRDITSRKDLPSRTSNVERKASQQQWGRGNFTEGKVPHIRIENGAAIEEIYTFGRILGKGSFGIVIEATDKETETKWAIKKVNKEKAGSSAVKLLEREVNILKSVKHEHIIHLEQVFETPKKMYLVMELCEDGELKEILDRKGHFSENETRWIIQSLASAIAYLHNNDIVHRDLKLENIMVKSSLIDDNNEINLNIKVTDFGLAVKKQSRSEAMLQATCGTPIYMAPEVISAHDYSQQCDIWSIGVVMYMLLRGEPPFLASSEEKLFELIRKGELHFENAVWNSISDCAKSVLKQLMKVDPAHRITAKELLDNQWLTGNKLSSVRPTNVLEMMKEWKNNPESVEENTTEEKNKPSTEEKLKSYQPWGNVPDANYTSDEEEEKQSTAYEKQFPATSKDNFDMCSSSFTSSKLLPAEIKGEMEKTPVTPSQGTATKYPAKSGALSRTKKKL
The target in data set [9] is PIM1 (Homo sapiens, UniProt P11309).
Chain of PIM1 (P11309 whole entry, species assumed): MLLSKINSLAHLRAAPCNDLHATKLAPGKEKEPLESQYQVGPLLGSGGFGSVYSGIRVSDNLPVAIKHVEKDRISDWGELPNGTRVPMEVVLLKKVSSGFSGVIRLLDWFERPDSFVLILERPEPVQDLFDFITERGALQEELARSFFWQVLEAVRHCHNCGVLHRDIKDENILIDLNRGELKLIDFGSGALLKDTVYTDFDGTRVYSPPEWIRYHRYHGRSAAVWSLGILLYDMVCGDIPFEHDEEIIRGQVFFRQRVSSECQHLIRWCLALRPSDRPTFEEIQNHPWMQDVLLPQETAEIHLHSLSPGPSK
The target in data set [10] is CK1δ (Homo sapiens, UniProt P48730).
Chain of CK1δ (P48730 whole entry): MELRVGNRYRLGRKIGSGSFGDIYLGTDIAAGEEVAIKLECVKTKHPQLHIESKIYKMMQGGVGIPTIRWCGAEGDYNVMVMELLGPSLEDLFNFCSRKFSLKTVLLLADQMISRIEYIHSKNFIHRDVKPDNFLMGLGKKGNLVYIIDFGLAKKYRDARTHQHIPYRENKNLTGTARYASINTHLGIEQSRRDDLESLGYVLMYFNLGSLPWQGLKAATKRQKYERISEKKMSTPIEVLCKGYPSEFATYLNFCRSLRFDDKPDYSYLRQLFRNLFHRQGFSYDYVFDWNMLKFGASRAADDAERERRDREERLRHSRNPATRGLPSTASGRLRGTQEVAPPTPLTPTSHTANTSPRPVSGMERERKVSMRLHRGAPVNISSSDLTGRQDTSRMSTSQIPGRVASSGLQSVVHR
Data set [11] deals with PIM3 (Homo sapiens, UniProt Q86V86).
Data set [12] deals with T2, TBK1 (Homo sapiens, UniProt Q9UHD2).
T2 sequence (Q9UHD2 1-729): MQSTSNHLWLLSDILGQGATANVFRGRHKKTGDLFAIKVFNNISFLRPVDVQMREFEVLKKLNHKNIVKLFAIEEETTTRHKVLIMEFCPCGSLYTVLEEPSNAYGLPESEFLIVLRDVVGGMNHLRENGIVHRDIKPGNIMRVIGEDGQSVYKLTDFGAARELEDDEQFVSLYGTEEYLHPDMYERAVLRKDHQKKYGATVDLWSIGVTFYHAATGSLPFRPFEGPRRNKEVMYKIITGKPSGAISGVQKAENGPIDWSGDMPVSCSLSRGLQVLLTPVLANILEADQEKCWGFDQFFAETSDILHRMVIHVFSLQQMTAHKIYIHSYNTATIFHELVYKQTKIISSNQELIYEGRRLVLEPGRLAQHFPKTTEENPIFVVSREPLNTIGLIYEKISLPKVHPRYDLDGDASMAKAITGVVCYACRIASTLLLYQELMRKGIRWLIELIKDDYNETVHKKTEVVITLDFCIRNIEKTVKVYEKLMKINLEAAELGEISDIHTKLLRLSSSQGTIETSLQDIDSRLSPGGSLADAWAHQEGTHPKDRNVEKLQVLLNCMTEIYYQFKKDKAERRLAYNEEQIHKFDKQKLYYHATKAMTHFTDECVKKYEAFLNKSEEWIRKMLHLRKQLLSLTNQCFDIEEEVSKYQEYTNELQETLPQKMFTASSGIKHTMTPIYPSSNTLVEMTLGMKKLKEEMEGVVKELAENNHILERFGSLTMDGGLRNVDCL

In data set [13] the target is T3, IRAK4 (Homo sapiens, UniProt Q9NWZ3).
T3 sequence (Q9NWZ3 1-460): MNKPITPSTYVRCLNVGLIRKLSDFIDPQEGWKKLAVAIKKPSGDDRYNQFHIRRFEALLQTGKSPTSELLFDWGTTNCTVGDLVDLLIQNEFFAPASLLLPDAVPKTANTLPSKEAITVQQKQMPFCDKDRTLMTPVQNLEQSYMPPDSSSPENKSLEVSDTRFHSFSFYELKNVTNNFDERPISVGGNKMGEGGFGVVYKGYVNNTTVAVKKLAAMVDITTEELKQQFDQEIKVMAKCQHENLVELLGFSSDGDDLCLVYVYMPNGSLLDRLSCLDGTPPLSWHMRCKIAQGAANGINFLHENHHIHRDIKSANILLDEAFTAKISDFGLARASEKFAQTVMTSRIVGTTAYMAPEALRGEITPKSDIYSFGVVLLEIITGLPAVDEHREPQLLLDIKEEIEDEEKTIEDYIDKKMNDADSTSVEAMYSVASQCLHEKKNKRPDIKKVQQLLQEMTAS

In data set [14] the target is HER4 (Homo sapiens, UniProt Q15303).
Chain of HER4 (Q15303 26-1308, species assumed): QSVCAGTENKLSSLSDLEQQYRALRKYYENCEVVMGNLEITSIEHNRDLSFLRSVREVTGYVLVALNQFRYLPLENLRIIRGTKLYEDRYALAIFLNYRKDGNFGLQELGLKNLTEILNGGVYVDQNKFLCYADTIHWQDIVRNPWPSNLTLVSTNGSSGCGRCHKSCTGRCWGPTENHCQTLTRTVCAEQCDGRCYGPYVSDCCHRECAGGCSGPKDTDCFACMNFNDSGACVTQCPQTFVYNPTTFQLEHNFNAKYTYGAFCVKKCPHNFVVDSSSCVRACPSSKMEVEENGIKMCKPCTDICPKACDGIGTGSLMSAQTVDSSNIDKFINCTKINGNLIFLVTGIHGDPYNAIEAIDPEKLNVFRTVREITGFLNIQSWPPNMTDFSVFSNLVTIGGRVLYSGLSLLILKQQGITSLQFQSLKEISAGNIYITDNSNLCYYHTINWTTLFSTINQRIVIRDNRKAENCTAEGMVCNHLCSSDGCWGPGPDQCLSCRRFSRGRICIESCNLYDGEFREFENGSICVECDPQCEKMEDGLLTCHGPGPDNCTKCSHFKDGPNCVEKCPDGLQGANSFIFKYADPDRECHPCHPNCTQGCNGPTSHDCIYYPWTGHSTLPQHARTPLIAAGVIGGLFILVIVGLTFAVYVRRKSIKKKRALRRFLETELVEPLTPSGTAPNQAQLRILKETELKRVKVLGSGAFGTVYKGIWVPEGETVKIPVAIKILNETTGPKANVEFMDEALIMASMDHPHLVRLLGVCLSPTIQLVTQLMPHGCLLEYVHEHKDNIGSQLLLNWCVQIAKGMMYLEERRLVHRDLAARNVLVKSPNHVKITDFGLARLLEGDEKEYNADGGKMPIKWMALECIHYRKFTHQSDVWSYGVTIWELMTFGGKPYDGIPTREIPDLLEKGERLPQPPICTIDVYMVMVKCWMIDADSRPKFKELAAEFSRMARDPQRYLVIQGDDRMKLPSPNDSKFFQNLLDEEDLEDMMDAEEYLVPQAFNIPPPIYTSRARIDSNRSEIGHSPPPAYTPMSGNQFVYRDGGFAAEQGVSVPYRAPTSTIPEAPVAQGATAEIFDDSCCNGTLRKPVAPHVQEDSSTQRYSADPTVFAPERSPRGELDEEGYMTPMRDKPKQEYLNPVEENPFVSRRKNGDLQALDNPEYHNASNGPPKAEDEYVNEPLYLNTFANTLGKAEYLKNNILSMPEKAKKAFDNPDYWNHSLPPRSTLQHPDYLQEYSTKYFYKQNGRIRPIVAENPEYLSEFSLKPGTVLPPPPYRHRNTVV

Our source for the remaining activity values is US9176064B2, “Bisubstrate fluorescent probes for protein kinase CK2” (University of Tartu, priority 2012, dated 2015).

SMILES strings stand for the structures. Where a SMILES comes first, the peptide text is derived from it. [ ]: non-standard residue; d: D form. The star is where a group is joined. X1 = O=C(CCCCCCCn1cnc2c(Br)c(Br)c(Br)c(Br)c21)*

Chain of PKBa (P31749 whole entry): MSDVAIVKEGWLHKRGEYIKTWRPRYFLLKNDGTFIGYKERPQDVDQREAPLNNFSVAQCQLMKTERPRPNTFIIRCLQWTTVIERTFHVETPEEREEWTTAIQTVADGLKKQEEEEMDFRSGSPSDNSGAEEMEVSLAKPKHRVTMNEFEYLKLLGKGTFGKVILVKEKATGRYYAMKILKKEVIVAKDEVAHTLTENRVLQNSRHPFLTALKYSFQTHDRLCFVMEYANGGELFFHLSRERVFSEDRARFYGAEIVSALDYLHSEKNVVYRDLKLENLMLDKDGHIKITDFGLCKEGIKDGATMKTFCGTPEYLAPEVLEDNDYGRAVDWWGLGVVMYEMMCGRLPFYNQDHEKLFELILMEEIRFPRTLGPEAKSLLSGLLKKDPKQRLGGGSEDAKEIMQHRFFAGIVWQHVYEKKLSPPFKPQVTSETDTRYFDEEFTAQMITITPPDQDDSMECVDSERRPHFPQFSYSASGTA
Chain of IRAK1 (P51617 whole entry, species assumed): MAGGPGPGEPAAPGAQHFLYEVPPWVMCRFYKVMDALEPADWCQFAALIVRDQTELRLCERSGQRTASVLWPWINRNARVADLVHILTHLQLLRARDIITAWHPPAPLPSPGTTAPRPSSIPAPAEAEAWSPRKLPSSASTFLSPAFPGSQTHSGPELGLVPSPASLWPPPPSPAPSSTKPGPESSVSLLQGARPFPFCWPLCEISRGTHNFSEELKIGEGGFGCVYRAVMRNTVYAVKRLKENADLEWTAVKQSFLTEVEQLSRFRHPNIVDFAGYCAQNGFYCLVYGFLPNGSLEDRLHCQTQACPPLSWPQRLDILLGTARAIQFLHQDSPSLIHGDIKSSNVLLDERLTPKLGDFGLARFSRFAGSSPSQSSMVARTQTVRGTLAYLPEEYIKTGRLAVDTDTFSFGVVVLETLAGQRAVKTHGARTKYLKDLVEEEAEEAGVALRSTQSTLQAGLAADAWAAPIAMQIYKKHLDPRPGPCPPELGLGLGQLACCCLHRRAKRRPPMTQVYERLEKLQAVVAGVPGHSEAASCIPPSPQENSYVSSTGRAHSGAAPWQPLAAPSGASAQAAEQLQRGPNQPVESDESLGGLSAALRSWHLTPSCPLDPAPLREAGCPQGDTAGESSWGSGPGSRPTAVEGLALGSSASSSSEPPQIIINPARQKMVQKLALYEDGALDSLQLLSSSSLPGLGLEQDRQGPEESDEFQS
Chain of GSK3b (P49841 whole entry, species assumed): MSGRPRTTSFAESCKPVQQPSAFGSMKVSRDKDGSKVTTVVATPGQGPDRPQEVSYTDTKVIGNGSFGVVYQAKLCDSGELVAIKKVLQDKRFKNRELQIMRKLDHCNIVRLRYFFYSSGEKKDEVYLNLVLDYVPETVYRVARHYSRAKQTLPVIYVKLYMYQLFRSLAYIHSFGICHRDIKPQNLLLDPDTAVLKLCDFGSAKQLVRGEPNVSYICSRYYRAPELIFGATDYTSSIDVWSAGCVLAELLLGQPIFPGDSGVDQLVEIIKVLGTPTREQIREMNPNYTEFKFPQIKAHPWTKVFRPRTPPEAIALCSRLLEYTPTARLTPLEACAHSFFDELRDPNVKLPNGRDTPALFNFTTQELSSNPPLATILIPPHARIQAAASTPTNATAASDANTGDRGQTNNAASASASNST

On to `NCCCC[C@H](NC(=O)[C@H](CC(=O)O)NC(=O)[C@H](CC(=O)O)NC(=O)[C@H](CC(=O)O)NC(=O)[C@H](CC(=O)O)NC(=O)[C@H](CC(=O)O)NC(=O)[C@@H](CC(=O)O)NC(=O)CCCCCCCn1cnc2c(Br)c(Br)c(Br)c(Br)c21)C(=O)O` [TBBI-OcA-(D-Asp)-(L-Asp)5-(L-Lys)-OH] (X1-[dD]DDDDDK-OH), for which the remaining activity at 1 µM came to 75% in data set [1]; 88% in data set [2]; 73% in data set [3]; 98% in data set [4]; 89% in [5]; 46% in data set [6]. The remaining activity at 1 µM in data set [7] turned out to be 112%; in [8], 96%; in data set [9], 62%; in [10], 49%; in data set [11], 59%; in [12] it was 93%. Moreover, the figures for the remaining activity at 1 µM in data set [13] and in [14] were 118% and 103%, respectively.
